In patent US20210070885A1 (JIANGSU ALPHAMAB BIOPHARMACEUTICALS, published 2021):

Target: T1, HER2m2-Fc (human, UniProt P04626 23-652)
T1 construct: also called HERm2; Herm2
Test: indirect ELISA as in Example 2-6, EC50 compared

Binder | binding result
Pmab-CLC2 (antibody, human IgG1, kappa, V domains shown, Pertuzumab heavy chain with common light chain CLC2) VH: EVQLVESGGGLVQPGGSLRLSCAASGFTFTDYTMDWVRQAPGKGLEWVADVNPNSGGSIYNQRFKGRFTLSVDRSKNTLYLQMNSLRAEDTAVYYCARNLGPSFYFDYWGQGTLVTVSS VL: not shown | binds
Pmab-CLC6 (antibody, human IgG1, kappa, V domains shown, Pertuzumab heavy chain with common light chain CLC6 (Y94T)) VH: EVQLVESGGGLVQPGGSLRLSCAASGFTFTDYTMDWVRQAPGKGLEWVADVNPNSGGSIYNQRFKGRFTLSVDRSKNTLYLQMNSLRAEDTAVYYCARNLGPSFYFDYWGQGTLVTVSS VL: DIQMTQSPSSLSASVGDRVTITCKASQDVSIGVAWYQQKPGKAPKLLIYSASYRYTGVPSRFSGSGSGTDFTLTISSLQPEDFATYYCQQYYITPYTFGQGTKVEIKR | binds
Pmab-CLC4 (antibody, human IgG1, kappa, V domains shown, Pertuzumab heavy chain with common light chain CLC4) VH: EVQLVESGGGLVQPGGSLRLSCAASGFTFTDYTMDWVRQAPGKGLEWVADVNPNSGGSIYNQRFKGRFTLSVDRSKNTLYLQMNSLRAEDTAVYYCARNLGPSFYFDYWGQGTLVTVSS VL: not shown | binds
Pmab-CLC3 (antibody, human IgG1, kappa, V domains shown, Pertuzumab heavy chain with common light chain CLC3) VH: EVQLVESGGGLVQPGGSLRLSCAASGFTFTDYTMDWVRQAPGKGLEWVADVNPNSGGSIYNQRFKGRFTLSVDRSKNTLYLQMNSLRAEDTAVYYCARNLGPSFYFDYWGQGTLVTVSS VL: not shown | binds

Target: T2, HER2m1-Fc (human, UniProt P04626 23-652)
T2 construct: also called HERm1; Her2 ml
Test: indirect ELISA as in Example 2-6, EC50 compared

Binder | fold reduction of affinity against the original Trastuzumab
Tmab-CLC5 (antibody, human IgG1, kappa, V domains shown) VH: not shown VL: DIQMTQSPSSLSASVGDRVTITCKASQDVSIGVAWYQQKPGKAPKLLIYSASYRYTGVPSRFSGSGSGTDFTLTISSLQPEDFATYYCQQYYIYPYTFGQGTKVEIKR | ~1 fold
Tmab-CLC6 (antibody, human IgG1, kappa, V domains shown) VH: not shown VL: DIQMTQSPSSLSASVGDRVTITCKASQDVSIGVAWYQQKPGKAPKLLIYSASYRYTGVPSRFSGSGSGTDFTLTISSLQPEDFATYYCQQYYITPYTFGQGTKVEIKR | ~1 fold
